Patent publication US20240043505A1

B1: Nb17 (VHH)
VHH: HVQLVESGGGLVQAGGSLRLSCAASGSIFSSNAMSWYRQAPGKQRELVASITSGGNADYADSVKGRFTISRDKNTVYPEMSSLKPADTAVYYCHAVGQEASAYAPRAYWGQGTQVTVSS
B2: Nb21 (VHH)
VHH: QVQLVESGGGLVQAGGSLRLSCAVSGLGAHRVGWFRRAPGKEREFVAAIGANGGNTNYLDSVKGRFTISRDNAKNTIYLQMNSLKPQDTAVYYCAARDIETAEYTYWGQGTQVTVSS

Columns and labels:
Details in all cases: remark: other sources report otherwise
[1] = biological target: receptor-binding domain (RBD) of the SARS-CoV-2 spike (S) glycoprotein (SARS-CoV-2), P0DTC2
[2] = biological target: T1, SARS-CoV-2 spike receptor-binding domain (RBD) (SARS-CoV-2), P0DTC2; experiment: indirect ELISA, RBD coated on plate, 4PL fit
[3] = biological target: T1, SARS-CoV-2 spike receptor-binding …; experiment: SPR (Biacore 3000), RBD immobilised, Nb as analyte, 1:1 Langmuir fit

| Binder | Buried surface area [1] | ELISA affinity [2] | Kd [3] | koff [3] | kon [3] |
| --- | --- | --- | --- | --- | --- |
| B1 | 921 Å^2 | 0.45 nM | – | – | – |
| B2 | 850 Å^2 | 0.3 nM | < 1 pM | < 1e-06 s⁻¹ | 3.79e+06 M⁻¹ s⁻¹ |
